Tested on: Ramos cell surface target (unidentified; human B-cell leukemia cells)
Assay: competition
Settings: competition with FITC-labeled monomer on target cells, flow cytometry

Point of comparison: “TAGGCAGTGGTTTGACGTCCGCATGTTGGGAATAGCCACGCCT / TAGGCAGTGGTTTGACGTCCGCATGTTGGGAATAGCCACGCCT / TAGGCAGTGGTTTGACGTCCGCATGTTGGGAATAGCCACGCCT [rigid trimer of SEQ 3 aptamer]”, IC50 20.8 nM. Against it:
- TAGGCAGTGGTTTGACGTCCGCATGTTGGGAATAGCCACGCCT / TAGGCAGTGGTTTGACGTCCGCATGTTGGGAATAGCCACGCCT / TAGGCAGTGGTTTGACGTCCGCATGTTGGGAATAGCCACGCCT / TAGGCAGTGGTTTGACGTCCGCATGTTGGGAATAGCCACGCCT [rigid tetramer of SEQ 3 aptamer] — 1.8-fold lower, 11.6 nM
- TAGGCAGTGGTTTGACGTCCGCATGTTGGGAATAGCCACGCCT / TAGGCAGTGGTTTGACGTCCGCATGTTGGGAATAGCCACGCCT / TAGGCAGTGGTTTGACGTCCGCATGTTGGGAATAGCCACGCCT [flexible trimer of SEQ 3 aptamer] — within 1.5-fold, 27.8 nM
- TAGGCAGTGGTTTGACGTCCGCATGTTGGGAATAGCCACGCCT / TAGGCAGTGGTTTGACGTCCGCATGTTGGGAATAGCCACGCCT [flexible dimer of SEQ 3 aptamer] — 1.6-fold higher, 33 nM
- TAGGCAGTGGTTTGACGTCCGCATGTTGGGAATAGCCACGCCT / TAGGCAGTGGTTTGACGTCCGCATGTTGGGAATAGCCACGCCT [rigid dimer of SEQ 3 aptamer] — within 1.5-fold, 22.5 nM

Same assay, conditions: unlabeled monomer vs FITC-labeled monomer on target cells, flow cytometry

Sequence “TAGGCAGTGGTTTGACGTCCGCATGTTGGGAATAGCCACGCCT [Ramos-binding ssDNA aptamer monomer]” has an IC50 of 400 nM.

Reference: patent publication US20110275702
